This series deals with T1, T4 Dda E94C/A360C (Enterobacteria phage T4, UniProt P32270 SEQ:1-439, E94C/A360C/(ΔM1)G1G2).
T1 sequence: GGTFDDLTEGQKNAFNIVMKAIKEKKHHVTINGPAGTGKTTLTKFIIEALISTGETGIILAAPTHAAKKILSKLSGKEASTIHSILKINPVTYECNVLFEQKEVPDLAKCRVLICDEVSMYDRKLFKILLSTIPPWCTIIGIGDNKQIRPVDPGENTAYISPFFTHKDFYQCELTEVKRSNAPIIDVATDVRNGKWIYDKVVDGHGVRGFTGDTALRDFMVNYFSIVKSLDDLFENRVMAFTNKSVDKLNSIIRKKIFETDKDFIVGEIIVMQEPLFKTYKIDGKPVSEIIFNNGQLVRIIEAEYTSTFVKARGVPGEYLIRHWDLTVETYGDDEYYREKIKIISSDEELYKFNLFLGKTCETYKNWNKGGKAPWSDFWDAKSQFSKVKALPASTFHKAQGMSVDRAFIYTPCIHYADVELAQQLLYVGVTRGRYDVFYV
Description: FP; 25 mM potassium phosphate, 151.5 mM KCl, pH 8.0, 10 mM MgCl2, 25 C, 60 min; exact value only in figure. The settings on record: label: FAM on thymine 37. As to the method: Two custom fluorescent substrates were used to assess the ability of T4 Dda—E94C/A360C helicase to bind to linear (SEQ ID NO: 64) and circular (SEQ ID NO: 65) single-stranded DNA. […] As the helicase bound to either fluorescent substrate in a buffered solution (25 mM potassium phosphate, 151.5 mM KCl, pH8.0, 10 mM MgCl₂), the fluorescence anisotropy (a property relating to the speed of tumbling of the DNA substrate in solution) increased. The lower the amount of helicase needed to effect an increase in anisotropy, the tighter the binding affinity between the DNA and helicase (FIG. 3).
T4 Dda—E94C/A360C was buffer exchanged into the binding buffer (25 mM potassium phosphate, 151.5 mM KCl, pH8.0, 10 mM MgCl₂) and then serially diluted over a concentration range of 0.02 nM to 750 nM. Each sample concentration was then mixed with linear or circular single-stranded DNA (1 nM of SEQ ID NO: 64 or 65) giving a final concentration range of T4 Dda—E94C/A360C of 0.01 nM to 375 nM and the fluorescence anisotropy assessed over the course of 60 min at 25° C.

B1: 44 nt linear ssDNA (ssDNA)
DNA: TTTTTTTTTTTTTTTTTTTTTTTTTTTTTTTTTTTTTTTTTTTT
One may read the Kd as the constant that tells how readily two partners part at equilibrium. As for B1, the equilibrium dissociation constant (Kd) was less than 15 nM.

The values are drawn from patent US20160257942, “MODIFIED HELICASES” (Oxford Nanopore Technologies Ltd., published 2016).
